± gives the uncertainty stated by the source.
Experiment: amyloid nucleation score (Sup35N fusion, yeast selection) (log enrichment); library NNK1; higher = more nucleation; inactive = no reads after selection
Summary of the method: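 Plasmid inserts were Illumina-sequenced at input and output from psi-negative yeast expressing Sup35N fused to peptides of 20 random codons. The yeast were induced with 100 μM copper sulfate for 24 hours and grown 7 days at 30°C on medium lacking adenine and uracil, and sequences with under 100 input reads were excluded. Nucleation score is the DiMSum log enrichment of output over input reads, centred on the mode score of non-aggregating sequences.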

Row | Substance | amyloid nucleation score
1 | HRSSNVSGLVWSFHRMKYVI | 0.599 ± 0.79
2 | HRVLYIPALDNVVCRDIWRV | 1.29 ± 0.46
3 | HSAFSWNYRDSFVEGCSSHG | 0.018 ± 0.3
4 | HSCAFNESHVFMHILCVISQ | -0.319 ± 0.44
5 | HSGGVTIQLCSKACVYSGAG | 0.754 ± 0.19
6 | HSIVDSRLSCICILSS | 4.16 ± 0.16
7 | HSLRQKVPM | 0.227 ± 0.3
8 | HSPLTRNVRSCVK | 0.718 ± 0.36
9 | HSRLLASYS | 1.34 ± 0.43
10 | HSSNFGRDSNSWLRAVD | -0.3 ± 0.61
11 | HSTTLPLLWAYILYPAFG | -0.267 ± 0.37
12 | HSYTTV | -0.905 ± 2.1
13 | HVDFQVASSDEDLIHLFLYH | 0.258 ± 0.54
14 | HVFIIQRMSWGVLRLLVSCR | -0.548 ± 0.52
15 | HVHVTACCRLM | 7.44 ± 0.077
16 | HVIYRLRGFITSSPFMTLRT | 0.577 ± 0.45
17 | HVSACRNKIHLWSRTHLSGE | 0.83 ± 0.5
18 | HVVKCGHYLRRVRNMGKLEF | -0.163 ± 0.79
19 | HVYMGYICCHAETDACMGCR | 4.57 ± 0.14
20 | HWYVTVCLVSMCQVGKGKDN | 3.5 ± 0.087
21 | HYKDSITVFFIFHIPIQMMM | 4.25 ± 0.057
22 | HYQERC | -0.604 ± 0.34
23 | HYRRVTVMCPLRVFVYAPKT | 5.61 ± 0.094
24 | HYVGSLMVSW | 0.188 ± 0.81
25 | HYVRNPARD | inactive
26 | HYVVVKRRPMDMSGLVGWDA | 0.036 ± 0.43

Row | Substance | amyloid nucleation score
27 | IACSARMFYDS | 0.399 ± 0.47
28 | IAGIEGPI | -0.182 ± 1.3
29 | IASSSTRFLYV | 0.813 ± 0.51
30 | IAVDTRVGASYVCGSS | -0.535 ± 0.79
31 | IAYVQFAPRKY | 0.776 ± 0.36
32 | ICCGCRYFFSTTSV | 6.7 ± 0.06
33 | ICELIWGGRRSNGINGSTSG | 0.741 ± 0.23
34 | ICGRNTLCARRRTSRLVGIE | 1.1 ± 0.97
35 | ICHGAEHNV | -0.735 ± 1.7
36 | ICIREPTNESLAQLSDGVIR | 2.06 ± 0.6
37 | ICLITVSMYKSRWIFSKKLT | -0.073 ± 0.54
38 | ICLMFLSGTIDYYLY | 0.111 ± 0.84
39 | ICYKGREHKPRIVNIGSDVR | inactive
40 | ICYNKSSP | -0.097 ± 1.2
41 | ICYSGHERYWLNLGICEGDS | 0.186 ± 0.32
42 | IDGCLPTNRVGSSRSVRGNV | inactive
43 | IDNGDCYNDRVLADTVS | -0.577 ± 0.6
44 | IDSKFQPK | 0.972 ± 0.84
45 | IDVWCESRVWRTWVYLGVRV | 0.903 ± 0.56
46 | IECVS | -0.251 ± 0.68
47 | IEGDFEFGVNVSRAARDMRV | -0.856 ± 0.94
48 | IENPVLRCSLYYPSRPIRRL | -0.344 ± 0.58
49 | IESEGSWRIHWK | 0.638 ± 0.39
50 | IETSKFRPINVKLVIYCCHG | 0.499 ± 0.79
51 | IEYFCWFAILGKPFESGIGS | 0.991 ± 0.51
52 | IFFYRYYNSHASSGERQNGR | 0.175 ± 0.56

Row | Substance | amyloid nucleation score
53 | IFNSATSTCNSRYIYIK | 4.26 ± 0.074
54 | IFSGSPGLN | 5.71 ± 0.076
55 | IFSIGW | 0.816 ± 0.45
56 | IFTAVSSVAFLSLINVLSLL | 2.75 ± 0.21
57 | IFTVTGNCTGGAHTQDVVWF | 0.381 ± 0.77
58 | IFYFYFCRYLSIQMVILGVQ | 0.983 ± 0.33
59 | IGCSCNPYGTFWG | 5.93 ± 0.066
60 | IGFPRLTSEDS | 0.755 ± 0.4
61 | IGFRPGRNSVWLMSRDLNFW | -1.11 ± 1.4
62 | IGIFIGRLCCYIFGEVMR | 1.16 ± 0.16
63 | IGITRILFVFFIDTATIKNG | -0.855 ± 0.43
64 | IGMALKWNFLCKSSDRFLRV | 0.296 ± 0.97
65 | IGMRCWTACSSKRFESCRRV | 0.743 ± 0.44
66 | IGSRIKA | 1.04 ± 0.19
67 | IGSSHRNSLVCVVEDENIQI | 1.01 ± 0.5
68 | IGTYGHRMELLIGSRCKSRT | -0.15 ± 0.22
69 | IGVKTYYTLFIGSMYFNSKG | 3.22 ± 0.097
70 | IGYEGYPYASYGCRLLEQDA | 0.168 ± 0.32
71 | IGYITHITYSVLVL | 0.371 ± 0.3
72 | IGYRYQSMLGCEGGRWWWVV | 0.45 ± 0.58
73 | IHCDIALNRSTWLYFPFVLA | inactive
74 | IHTVTLNNHSSNGDCSSFNI | -0.453 ± 0.43
75 | IHVSENDMELVWLYGVVRI | -0.708 ± 0.9
76 | IIAKNTDKVSCTVRVSFL | -0.894 ± 1.4
77 | IICKVCLCVAPM | 2.81 ± 0.19
78 | IIDPDREYTVSN | -0.236 ± 0.95

Row | Substance | amyloid nucleation score
79 | IIFELKGLPLKNGMRGLKPL | -0.579 ± 0.34
80 | IIGTPVPYLGVLKTFDIKYF | 0.125 ± 0.36
81 | IIIPFLSNSCEFMWL | 4.81 ± 0.076
82 | IIISMFRGAGRIYSF | 0.336 ± 0.64
83 | IIITFLCNYFQGWNCLLVHF | 2.35 ± 0.1
84 | IIKFSNDWDVDKFSFGSVLE | 0.596 ± 0.63
85 | IINMMLSHRDNWLFYMSFVG | -0.308 ± 0.42
86 | IIQSSTGLWFIIRKVDATYV | 0.812 ± 0.28
87 | IKCHYFDVCLNVWSLCYLAC | 1.24 ± 0.46
88 | IKDRFLEALCVKCGLSYTQG | -0.035 ± 0.26
89 | IKKEIRSVFGLSGTSVKGNN | -0.118 ± 0.74
90 | IKRKG | 0.326 ± 0.46
91 | IKRLFWDWLGDRDLGRMSTP | inactive
92 | IKSEAWICCTSLYMNQGDRS | 8.507 ± 0.065
93 | IKSVMDWSSCTEL | -0.144 ± 0.33
94 | IKVAN | 1.1 ± 0.47
95 | IKVLSYISWCGGFEKRCVGG | 1.05 ± 0.46
96 | ILCICY | 2.48 ± 0.2
97 | ILDHT | 0.267 ± 0.33
98 | ILGAI | 1.66 ± 0.58
99 | ILHYWVAVSMAQWICIGLKK | 0.194 ± 0.45
100 | ILIEETFLS | inactive
101 | ILMFISVFYCFCRKTRYLNR | 1.01 ± 0.31
102 | ILSFSSRPVVDNHSTTW | 0.682 ± 0.51
103 | ILSIYVSDAYKSMSETN | 1.14 ± 0.42
104 | ILSNTRSVFYSSN | -0.089 ± 0.38

Row | Substance | amyloid nucleation score
105 | ILSSFILVANCWILFHPLFW | -0.411 ± 0.52
106 | ILSSGGEKDFNSLYT | -0.105 ± 0.47
107 | ILTLIMAL | 0.013 ± 0.33
108 | ILVLRGCIKLR | inactive
109 | ILVPLNQGEIWRNKIRYWI | 0.019 ± 0.4
110 | IMCISFVFFNLKGYGGTG | 3.11 ± 0.082
111 | IMEMG | 0.11 ± 0.53
112 | IMGHIKM | -0.366 ± 0.44
113 | IMMHSGPRKVPGSFGQTVHD | 0.019 ± 0.68
114 | IMNLSRNRVGLRVYGI | -0.029 ± 0.41
115 | IMVVFGITCVPASGNFLQGW | inactive
116 | IMYWITGTIMCY | 0.037 ± 0.16
117 | INALYRFGWKARFSMSC | 0.282 ± 0.45
118 | INFCRSPMPWNGSALVNLMV | -0.014 ± 0.53
119 | INRHVAMWEDQVLSRLAMWF | 2.53 ± 0.13
120 | INSRAIRLAKGDSVSWSSHG | -0.244 ± 0.32
121 | INTYWAGCIFCRMFGESRLK | 7.253 ± 0.069
122 | INVFNCCWRLIFVLEV | 2.72 ± 0.14
123 | INVIYNICFQVSW | 8.413 ± 0.052
124 | IPDNVVF | -1.27 ± 1.4
125 | IPENCSGLYWLGNYVPSIAD | -0.439 ± 0.34
126 | IPKCMYGRDRICLMLVAFEN | 1.79 ± 0.28
127 | IPRYQSGLWGCCVY | 0.489 ± 0.58
128 | IQAKKDPTAESQRGCC | 0.197 ± 0.51
129 | IQESVMLVLVDGGVISARL | 0.106 ± 0.3
